Patent US20130157945A1 (NEW YORK UNIVERSITY SCHOOL OF MEDICINE, published 2013)

Legend:
[1] = molecular target: T1, Atsttrin (yeast two-hybrid construct in pDBleu) (human, UniProt P04386 1-147 (Saccharomyces cerevisiae entry), limits assumed); assay: yeast two-hybrid, β-galactosidase assay
T1 construct: domain: Gal4 DBD; also called ½A+P3+P4+½C+P5+½F; ½F-P3-P4-½A-P5-½C

[2] = molecular target: T2, TNFR1 (as used in the surface plasmon resonance assays) (UniProt P19438 30-211, limits assumed); assay: surface plasmon resonance
T2 sequence (looked up): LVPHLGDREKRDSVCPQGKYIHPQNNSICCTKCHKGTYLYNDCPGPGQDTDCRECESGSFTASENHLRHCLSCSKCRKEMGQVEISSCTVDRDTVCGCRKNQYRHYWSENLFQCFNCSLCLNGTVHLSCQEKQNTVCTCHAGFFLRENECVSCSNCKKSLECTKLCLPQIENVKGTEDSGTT

[3] = molecular target: T3, TNFR2 (as used in the surface plasmon resonance assays) (UniProt P20333 23-257, limits assumed); assay: surface plasmon resonance
T3 sequence (looked up): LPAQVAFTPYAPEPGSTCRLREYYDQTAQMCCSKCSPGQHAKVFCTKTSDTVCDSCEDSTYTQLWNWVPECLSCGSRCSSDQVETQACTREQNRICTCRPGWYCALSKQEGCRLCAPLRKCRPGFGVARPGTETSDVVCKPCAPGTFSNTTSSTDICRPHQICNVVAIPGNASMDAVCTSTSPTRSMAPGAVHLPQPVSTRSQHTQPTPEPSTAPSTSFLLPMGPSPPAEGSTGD

[4] = molecular target: T2, TNFR1 (as used in the surface plasmon …); assay: surface plasmon resonance, KD against that of TNFα/TNFR1
[5] = molecular target: T3, TNFR2 (as used in the surface plasmon …); assay: surface plasmon resonance, KD against that of TNFα/TNFR2
[6] = molecular target: T2, TNFR1 (as used in the surface plasmon …); assay: surface plasmon resonance (SensiQ Pioneer, FastStep kinetic assay)

B1: RANK (yeast two-hybrid plasmid of Example 9) (receptor, UniProt Q9Y6Q6 30-212, looked up)
chain: IAPPCTSEKHYEHLGRCCNKCEPGKYMSSKCTTTSDSVCLPCGPDEYLDSWNEEDKCLLHKVCDTGKALVAVVAGNSTTPRRCACTAGYHWSQDCECCRRNTECAPGLGAQHPLQLNKDTVCKPCLAGYFSDAFSSTDKCRPWTNCTFLGKRVEHHGTEKSDAVCSSSLPARKPPNEPHVYLP
B1: no binding [1].

B2: Atsttrin (recombinant, released from GST-Atsttrin by factor Xa) (peptide)
chain: PQASCCEDRVHCCPHGAFCDLVHTRCITPTGTHPLAKKLPAQRTNRAVALSSSASSKENATTDLLTKLPAHTVGDVKCDMEVSCPDGYTCCRLQSGAWPWCEQGPHQVPWMEKAPAHLSLPDPQALKRDVPCDNVSSCPSSDTCCQLTSGEWGCCPIP
notes: Expressed in bacteria as GST fusion, cleaved with factor Xa; also called Antagonist of TNF/TNFR Signaling via Targeting TNF Receptors; purified Atsttrin
B2 was tested, and the Kd [2] was 0.16 µM, the Kd [3] was 0.0859 µM and the “fold lower affinity than TNFα” value [4] was about 18 fold. For the same binder, the “fold higher binding affinity than TNFα” value [5] was about 9 fold.

B3: recombinant GEP (granulin/epithelin precursor) (ligand)
chain: TRCPDGQFCPVACCLDPGGASYSCCRPLLDKWPTTLSRHLGGPCQVDAHCSAGHSCIFTVSGTSSCCPFPEAVACGDGHHCCPRGFHCSADGRSCFQRSGNNSVGAIQCPDSQFECPDFSTCCVMVDGSWGCCPMPQASCCEDRVHCCPHGAFCDLVHTRCITPTGTHPLAKKLPAQRTNRAVALSSSVMCPDARSRCPDGSTCCELPSGKYGCCPMPNATCCSDHLHCCPQDTVCDLIQSKCLSKENATTDLLTKLPAHTVGDVKCDMEVSCPDGYTCCRLQSGAWGCCPFTQAVCCEDHIHCCPAGFTCDTQKGTCEQGPHQVPWMEKAPAHLSLPDPQALKRDVPCDNVSSCPSSDTCCQLTSGEWGCCPIPEAVCCSDHQHCCPQRYTCVAEGQCQRGSEIVAGLEKMPARRGSLSHPRDIGCDQHTSCPVGGTCCPSQGGSWACCQLPHAVCCEDRQHCCPAGYTCNVKARSCEKEVVSAQPATFLARSPHVGVKDVECGEGHFCHDNQTCCRDNRQGWACCPYAQGVCCADRRHCCPAGFRCARRGTKCLRREAPRWDAPLRDPALRQLL
notes: also called purified GEP; PGRN
B3 showed a Kd [6] of 0.00158 µM, a koff [6] of 0.000814 s⁻¹ and a kon [6] of 516000 M⁻¹ s⁻¹.

B4: FAS (yeast two-hybrid plasmid of Example 9) (receptor, UniProt P25445 26-173, looked up)
chain: QVTDINSKGLELRKTVTTVETQNLEGLHHDGQFCHKPCPPGERKARDCTVNGDEPDCVPCQEGKEYTDKAHFSSKCRRCRLCDEGHGLEVEINCTRTQNTKCRCKPNFFCNSTVCEHCDPCTKCEHGIIKECTLTSNTKCKEEGSRSN
B4: no binding [1].
